Reference: the supplement of paper PMC11780869

Test system: Bacillus subtilis
Assay: cleaved RNA product abundance (RNA/gDNA barcode ratio) relative to median wild-type variant (ratio to wild type); higher = more accumulation of the downstream cleavage product
Conditions: experiment (reporter, strain, medium): exp 8a: truncated aprE reporter, strain BJT201 with 2% xylose (RNase J1 expressed); cleavage site: glnRA (positions -5 to +31 mutated)
Outline: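 The B. subtilis chromosome carried reporter mRNAs, truncated aprE or tetM, containing barcoded RNase Y cleavage-site windows mutagenized using oligos with a 9% error rate. After growth in LB at 37°C from OD600 0.0003 to 0.3, cleaved RNA was gel-selected, reverse transcribed and barcode-sequenced next to genomic DNA barcodes, with UMI collapsing. Each construct's RNA:gDNA barcode ratio was scaled to the median construct with the unmutated site. That scaled ratio is reported as cleaved product abundance.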

Sequence	cleaved RNA product abundance
CGACATGTCCCGCTTCTTTCATTAATCCGTTAGCAATTGTTTTGATATATACATTTACCTTTTAAGAGGAGGAAT	0.65
CGACATGTCCCGCTTCTTTCATTAATCCGTTAGCAATTGTTTTGCCATATACATTTACCTTTTAAGAGGAGGAAT	0.156
CGACATGTCCCGCTTCTTTCATTAATCCGTTAGCAATTGTTTTGCTAAATACATTTACCTTTTAAGAGGAGGAAT	0.342
CGACATGTCCCGCTTCTTTCATTAATCCGTTAGCAATTGTTTTGCTATAGACATTTACCTTTTAAGAGGAGGAAT	0.345
CGACATGTCCCGCTTCTTTCATTAATCCGTTAGCAATTGTTTTGCTATATAAATTTACCTTTTAAGAGGAGGAAT	1.01
CGACATGTCCCGCTTCTTTCATTAATCCGTTAGCAATTGTTTTGCTATATACAATTACCTTTTAAGAGGAGGAAT	1.24
CGACATGTCCCGCTTCTTTCATTAATCCGTTAGCAATTGTTTTGCTATATACATGTACCTTTTAAGAGGAGGAAT	0.526
CGACATGTCCCGCTTCTTTCATTAATCCGTTAGCAATTGTTTTGCTATATACATTAACCTTTTAAGAGGAGGAAT	1.62
CGACATGTCCCGCTTCTTTCATTAATCCGTTAGCAATTGTTTTGCTATATACATTCACCTTTTAAGAGGAGGAAT	0.849
CGACATGTCCCGCTTCTTTCATTAATCCGTTAGCAATTGTTTTGCTATATACATTGACTTTTTAAGAGGAGGAAT	1.33
CGACATGTCCCGCTTCTTTCATTAATCCGTTAGCAATTGTTTTGCTATATACATTTAACTTTTAAGAGGAGGAAT	1.06
CGACATGTCCCGCTTCTTTCATTAATCCGTTAGCAATTGTTTTGCTATATACATTTACCTTTTAAGAGGAGGAAT	1.24
CGACATGTCCCGCTTCTTTCATTAATCCGTTAGCAATTGTTTTGCTATATACATTTACGTTTTAAGAGGAGGAAT	1.1
CGACATGTCCCGCTTCTTTCATTAATCCGTTAGCAATTGTTTTGCTATATACATTTACTTTTTAAGAGGAGGAAT	1.01
CGACATGTCCCGCTTCTTTCATTAATCCGTTAGCAATTGTTTTGCTATATACATTTGCCTTTTAAGAGGAGGAAT	0.188
CGACATGTCCCGCTTCTTTCATTAATCCGTTAGCAATTGTTTTGCTATATACCTTTACCTTTTAAGAGGAGGAAT	0.3
CGACATGTCCCGCTTCTTTCATTAATCCGTTAGCAATTGTTTTGCTATATACTTTTACCTTTTAAGAGGAGGAAT	0.272
CGACATGTCCCGCTTCTTTCATTAATCCGTTAGCAATTGTTTTGCTATATAGATTTACCTTTTAAGAGGAGGAAT	1.51
CGACATGTCCCGCTTCTTTCATTAATCCGTTAGCAATTGTTTTGCTATATGCATTTACCTTTTAAGAGGAGGAAT	0.232
CGACATGTCCCGCTTCTTTCATTAATCCGTTAGCAATTGTTTTGCTTTATACATTTACCTTTTAAGAGGAGGAAT	0.361
CGACATGTCCCGCTTCTTTCATTAATCCGTTAGCAATTGTTTTGTTATATACATTTACCTTTTAAGAGGAGGAAT	0.425
CGACATGTCCCGCTTCTTTCATTAATCCGTTAGCAATTTTTTTGCTATATACATTTACCTTTTAAGAGGAGGAAT	1.16

Sequence	cleaved RNA product abundance
CGACATGTCCCGCTTCTTTCATTAATCCGTTAGCACCTCTTTTGCTATATACATTTACCTTTTAAGAGGAGGAAT	0.235
CGACATGTCCCGCTTCTTTCATTAATCCGTTAGCACCTGTTTTGCAATATACATTTACCTTTTAAGAGGAGGAAT	0.351
CGACATGTCCCGCTTCTTTCATTAATCCGTTAGCACCTGTTTTGCTATATACAATTACCTTTTAAGAGGAGGAAT	0.867
CGACATGTCCCGCTTCTTTCATTAATCCGTTAGCACCTGTTTTGCTATATACAGTTACCTTTTAAGAGGAGGAAT	0.393
CGACATGTCCCGCTTCTTTCATTAATCCGTTAGCACCTGTTTTGCTATATACATTTACCTTTTAAGAGGAGGAAT	0.748
CGACATGTCCCGCTTCTTTCATTAATCCGTTAGCACCTGTTTTGCTATATACATTTACTTTTTAAGAGGAGGAAT	0.499
CGACATGTCCCGCTTCTTTCATTAATCCGTTAGCACCTGTTTTGCTATATATATTTACCTTTTAAGAGGAGGAAT	1.44
CGACATGTCCCGCTTCTTTCATTAATCCGTTAGCAGCTGTTTTGCTATATACATTTACCTTTTAAGAGGAGGAAT	0.754
CGACATGTCCCGCTTCTTTCATTAATCCGTTAGCAGCTGTTTTTCTATATACATTTACCTTTTAAGAGGAGGAAT	0.778
CGACATGTCCCGCTTCTTTCATTAATCCGTTAGCATCTATTTTGCTATATACATTTACCTTTTAAGAGGAGGAAT	1.53
CGACATGTCCCGCTTCTTTCATTAATCCGTTAGCATCTCTTTTGCTATATACATTTACCTTTTAAGAGGAGGAAT	0.59
CGACATGTCCCGCTTCTTTCATTAATCCGTTAGCATCTGATTTGCTATATACATTTACCTTTTAAGAGGAGGAAT	1.34
CGACATGTCCCGCTTCTTTCATTAATCCGTTAGCATCTGTTTTCCTATATACATTTACCTTTTAAGAGGAGGAAT	0.524
CGACATGTCCCGCTTCTTTCATTAATCCGTTAGCATCTGTTTTGATATATACATTTACCTTTTAAGAGGAGGAAT	0.491
CGACATGTCCCGCTTCTTTCATTAATCCGTTAGCATCTGTTTTGCTATATACATATACCTTTTAAGAGGAGGAAT	0.727
CGACATGTCCCGCTTCTTTCATTAATCCGTTAGCATCTGTTTTGCTATATACATTTAACTTTTAAGAGGAGGAAT	0.999
CGACATGTCCCGCTTCTTTCATTAATCCGTTAGCATCTGTTTTGCTATATACATTTACATTTTAAGAGGAGGAAT	1.1
CGACATGTCCCGCTTCTTTCATTAATCCGTTAGCATCTGTTTTGCTATATACATTTACCTTTTAAGAGGAGGAAT	0.769
CGACATGTCCCGCTTCTTTCATTAATCCGTTAGCATCTGTTTTGCTATATACATTTACGTTTTAAGAGGAGGAAT	0.589
CGACATGTCCCGCTTCTTTCATTAATCCGTTAGCATCTGTTTTGCTATATACCTTTACCTTTTAAGAGGAGGAAT	0.152
CGACATGTCCCGCTTCTTTCATTAATCCGTTAGCATCTGTTTTGCTATATAGATTTACCTTTTAAGAGGAGGAAT	0.899
CGACATGTCCCGCTTCTTTCATTAATCCGTTAGCATCTGTTTTGCTATATTCATTTACCTTTTAAGAGGAGGAAT	0.31

Sequence	cleaved RNA product abundance
CGACATGTCCCGCTTCTTTCATTAATCCGTTAGCATCTGTTTTTCTATATACATTTACCTTTTAAGAGGAGGAAT	0.273
CGACATGTCCCGCTTCTTTCATTAATCCGTTAGCATCTTTTTTGCTATATACATTTACCTTTTAAGAGGAGGAAT	0.995
CGACATGTCCCGCTTCTTTCATTAATCCGTTAGCCAATGTTTTGCTATATACATTTACCTTTTAAGAGGAGGAAT	0.576
CGACATGTCCCGCTTCTTTCATTAATCCGTTAGCCACTATTTTGCTATATACATTTACCTTTTAAGAGGAGGAAT	0.358
CGACATGTCCCGCTTCTTTCATTAATCCGTTAGCCACTGTATTGCTATATACATTTACCTTTTAAGAGGAGGAAT	0.376
CGACATGTCCCGCTTCTTTCATTAATCCGTTAGCCACTGTTTTGCTATAAACATTTACCTTTTAAGAGGAGGAAT	0.219
CGACATGTCCCGCTTCTTTCATTAATCCGTTAGCCACTGTTTTGCTATATACAGTTACCTTTTAAGAGGAGGAAT	0.244
CGACATGTCCCGCTTCTTTCATTAATCCGTTAGCCACTGTTTTGCTATATACATTTACCTTTTAAGAGGAGGAAT	0.478
CGACATGTCCCGCTTCTTTCATTAATCCGTTAGCCACTGTTTTGCTATATACATTTACTTTTTAAGAGGAGGAAT	0.98
CGACATGTCCCGCTTCTTTCATTAATCCGTTAGCCACTGTTTTGTTATATACATTTACCTTTTAAGAGGAGGAAT	0.247
CGACATGTCCCGCTTCTTTCATTAATCCGTTAGCCAGTGTTTTGCTATATACATTTACCTTTTAAGAGGAGGAAT	0.333
CGACATGTCCCGCTTCTTTCATTAATCCGTTAGCGACAGTTTTGCTATATACATTTACCTTTTAAGAGGAGGAAT	0.233
CGACATGTCCCGCTTCTTTCATTAATCCGTTAGCGACTGTTTAGCTATATACATTTACCTTTTAAGAGGAGGAAT	0.681
CGACATGTCCCGCTTCTTTCATTAATCCGTTAGCGACTGTTTTGATATATACATTTACCTTTTAAGAGGAGGAAT	0.24
CGACATGTCCCGCTTCTTTCATTAATCCGTTAGCGACTGTTTTGCTATATACATTGACCTTTTAAGAGGAGGAAT	0.274
CGACATGTCCCGCTTCTTTCATTAATCCGTTAGCGACTGTTTTGCTATATACATTTAACTTTTAAGAGGAGGAAT	0.418
CGACATGTCCCGCTTCTTTCATTAATCCGTTAGCGACTGTTTTGCTATATACATTTACCTTTTAAGAGGAGGAAT	0.385
CGACATGTCCCGCTTCTTTCATTAATCCGTTAGCTACTGTTATGCTATATACATTTACCTTTTAAGAGGAGGAAT	0.786
CGACATGTCCCGCTTCTTTCATTAATCCGTTAGCTACTGTTTTGCAATATACATTTACCTTTTAAGAGGAGGAAT	0.187
CGACATGTCCCGCTTCTTTCATTAATCCGTTAGCTACTGTTTTGCTATATACATTTAACTTTTAAGAGGAGGAAT	0.621
CGACATGTCCCGCTTCTTTCATTAATCCGTTAGCTACTGTTTTGCTATATACATTTACCTTTTAAGAGGAGGAAT	0.56
CGACATGTCCCGCTTCTTTCATTAATCCGTTAGCTACTGTTTTGCTATATACATTTACGTTTTAAGAGGAGGAAT	0.818
